Source: article doi:10.1101/2022.07.28.501832

Biological target: human RXFP4 on stably transfected CHO-K1 cells (human) (UniProt Q8TDU9)
Experiment: competitive binding of a europium-labelled ligand on cells

Chain of UniProt Q8TDU9 (Q8TDU9 whole entry): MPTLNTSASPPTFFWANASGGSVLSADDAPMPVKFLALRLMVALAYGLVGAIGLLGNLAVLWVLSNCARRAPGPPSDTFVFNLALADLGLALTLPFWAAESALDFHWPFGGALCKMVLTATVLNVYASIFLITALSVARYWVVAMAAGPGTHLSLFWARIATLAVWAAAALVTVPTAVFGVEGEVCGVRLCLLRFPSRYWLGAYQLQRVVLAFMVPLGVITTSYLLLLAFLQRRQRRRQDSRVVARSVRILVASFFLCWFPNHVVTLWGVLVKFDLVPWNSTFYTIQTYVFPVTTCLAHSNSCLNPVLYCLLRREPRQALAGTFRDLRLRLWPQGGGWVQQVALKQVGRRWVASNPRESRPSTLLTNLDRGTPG

- pKi: 8.19
Substance: recombinant two-chain human insulin-like peptide 5 (INSL5) (ligand)
